Assays:
[1] = tested on: long-term repopulating HSCs; assay: Secondary competitive repopulating transplant assay; assay type: in vivo, mouse
Protocol: Secondary competitive transplant assays were performed using whole BM harvested from primary CD45. 2^+ mice at 24 weeks following transplantation with either CD45. 1^+ BM 34^−KSL cells or the progeny of 34^−KSL cells following culture with TSF alone or TSF+PTN. Secondary recipient CD45. 2^+ C57Bl6 mice were irradiated with 950 cGy TBI and PB analysis of donor cell engraftment was performed at 12 weeks post-transplantation in secondary mice.
In order to confirm that PTN caused the amplification of long-term repopulating HSCs with serial repopulating capacity, secondary transplants were performed. Importantly, secondary CD45.

[2] = tested on: BM stem and progenitor cells; assay: In vivo PTN study in mice irradiated with 700 cGy TBI; parameters: species or system mouse; conditions: 2 μg PTN intraperitoneally daily x 7 days, day +7
Protocol: Adult B6.SJL mice received a single fraction of 700 cGy TBI and were then treated either with PBS (saline) or 2 μg PTN intraperitoneally daily ×7 days (beginning 4 hours post irradiation). At day +7, the mice were sacrificed and total viable BM cells were quantified. Flow cytometric analysis was performed to estimate the percentage of BM KSL cells in each femur (Chute at al, Blood 109:2365-72 (2007), Salter et al, Blood 113:2104-7 (2009)). Colony forming cell (CFC) assays were performed using MethoCult M3434 media (Stem Cell Technologies, Vancouver, BC) as previously described (Chute et al, Blood 109:2365-72 (2007), Salter et al, Blood 113:2104-7 (2009)). Long-term cultureinitiating cell (LTC-IC) assays were performed as follows: Murine M2-10B4 (ATCC CRL-1972) BM stromal cells were plated in a 24 well dish and irradiated with 1500 cGy. Limiting dilutions (45,000, 90,000, and 180,000) of BM MNCs from irradiated mice that were treated with either PTN or PBS were added to the stromal cell layers and maintained in MyeloCult M5300 media (Stem Cell Technologies) with weekly half-medium changes for 4 weeks. At 4 weeks, the non-adherent and adherent cells (15,000 cells/dish) were collected and plated into 3×35 mm dishes (MethoCult, StemCell Technologies). After two weeks, hematopoietic colonies were counted and scored.
Since the addition of PTN was sufficient to induce HSC amplification in vitro a test was made as to whether administration of PTN could augment BM HSC regeneration in vivo following injury.

BM 34−KSL cells = assay: Liquid suspension culture of BM 34−KSL cells with TSF with and without PTN x 7 days; assay type: cell-based, mouse
Protocol: The above “loss of function” studies strongly implicated PTN as a secreted growth factor for HSCs.
Purified BM 34^−KSL cells were isolated from C57Bl6 and B6.SJL mice (Jackson Laboratory, Bar Harbor, Me.) via flow cytometric cell sorting as previously described (Reya, et al, Nature 423:409-14 (2003), Salter et al, Blood 113:2104-7 (2009)). Liquid suspension cultures of BM 34^−KSL cells were supplemented with IMDM+10% FBS+1% pcn/strp+20 ng/ml thrombopoietin, 120 ng/ml SCF, and 50 ng/ml flt-3 ligand (“TSF” media) with and without recombinant (human) PTN (R&D Systems, Minneapolis, Minn.). Non-contact HUBEC cultures were conducted using 0.4 μm transwell inserts (Corning, Lowell Mass.) and supplemented with TSF media with and without goat anti-PTN or isotype control antibody (R&D). Phenotypic analysis for KSL cells was performed as previously described (Chute et al, Blood 109:2365-72 (2007), Salter et al, Blood 113:2104-7 (2009)).
Since PTN has no known function in regulating hematopoiesis (Meng et al, Proc Natl Acad Sci USA 97: 2603-8 (2000)), an examination was first made as to whether BM stem/progenitor cells expressed one or more of the PTN receptors, receptor protein tyrosine phosphatase β/ζ (RPTP β/ζ), Syndecan or anaplastic lymphoma kinase (ALK) (Stoica et al, J Biol Chem 276:16772-9 (2001), Landgraf et al, J Biol Chem 283:25036-45 (2008)). The majority of BM MNCs and c-kit+sca-1^+lin^− (KSL) stem/progenitor cells expressed RPTP β/ζ (n=3, mean 87.0%±8.8 and 89%, respectively; FIG. 6A), whereas neither population expressed Syndecan or ALK (data not shown). In order to determine whether PTN might be a growth factor for HSCs, C57Bl6 BM CD34^−KSL cells, which are highly enriched for HSCs (Kiel et al, Nat Rev Immunol 8:290-301 (2008), Salter et al, Blood 113:2104-7 (2009)), were isolated by FACS and placed in liquid suspension culture with 20 ng/mL thrombopoietin, 120 ng/mL SCF and 50 ng/mL Flt-3 ligand (“TSF”) with or without 10, 100 or 1000 ng/mL PTN.

β-catenin = β-catenin assays; assay type: cell-based, mouse; conditions: 34−KSL cells treated with PTN (data not shown)
Text: In order to determine a potential mechanism through which PTN mediates HSC expansion, an examination was made as to whether PTN altered pathways that are known to be affected by RPTPβ/ζ (Meng et al, Proc Natl Acad Sci USA 97: 2603-8 (2000), Stoica et al, J Biol Chem 276:16772-9 (2001), Landgraf et al, J Biol Chem 283:25036-45 (2008), Deuel et al, Arch Biochem Biophys 397:162-71 (2002)). Canonical PTN signaling occurs via binding and inactivation of RPTPβ/ζ (Meng et al, Proc Natl Acad Sci USA 97: 2603-8 (2000)), which can facilitate the tyrosine phosphorylation of several intracellular substrates, including Akt and β-catenin (Souttou et al, J Biol Chem 272:19588-93 (1997), Gu et al, FEBS Lett 581:382-8 (2007)). […] BM 34^− KSL cells were treated with TSF with and without 100 ng/mL PTN in the presence and absence of 10 μM wortmannin, a PI 3-kinase inhibitor (Souttou et al, J Biol Chem 272:19588-93 (1997)).

[3] = 100 ng/mL PTN added to TSF, 7 days
[4] = increasing doses (10, 100, 1000 ng/mL) of rPTN with TSF, Example 1

B1: PTN: Pleiotrophin, heparin binding growth factor; recombinant human PTN purchased from R&D systems (protein, UniProt P21246 33-168, looked up)
Pleiotrophin: GKKEKPEKKVKKSDCGEWQWSVCVPTSGDCGLGTREGTRTGAECKQTMKTQRCKIPCNWKKQFGAECKYQFQAWGECDLNTALKTRTGSLKRALHNAECQKTVTISKPCGKLTKPKPQAESKKKKKEGKKQEKMLD
multilineage differentiation in secondary mice ([1]; 12 weeks): normal multilineage differentiation | CD45.1+ cell engraftment in secondary mice, fold higher vs 34−KSL cell group or TSF alone group ([1]; 12 weeks post-transplant, BM harvested at 24 weeks from primary recipients): > 10 fold | increase in BM colony forming cells (CFCs) [2]: 2.9 fold | increase in long-term culture-initiating cells (LTC-ICs) / BM HSC content [2]: 11 fold | increase in primitive BM KSL cells compared to controls [2]: 5.6 fold | increase in total BM cells compared to controls [2]: 2.3 fold | increase in total KSL stem/progenitor cells compared to TSF alone (BM 34−KSL cells; [3]): 17.7 fold | increase in total cells compared to TSF alone (BM 34−KSL cells; [3]): 6.4 fold | total cells, % KSL cells and total KSL cells (BM 34−KSL cells; addition of 10 to 100 ng/mL PTN to TSF): dose responsive increase | KSL cells in culture compared to the progeny of cytokines alone (BM 34−KSL cells; [4]): significant increase | total cells in culture compared to the progeny of cytokines alone (BM 34−KSL cells; [4]): significant increase | activated form of β-catenin (β-catenin): no increase
